Measured values as given in paper PMC2879509.

T1: MSL2 (Drosophila melanogaster, UniProt P50534 1-773)
T1 sequence: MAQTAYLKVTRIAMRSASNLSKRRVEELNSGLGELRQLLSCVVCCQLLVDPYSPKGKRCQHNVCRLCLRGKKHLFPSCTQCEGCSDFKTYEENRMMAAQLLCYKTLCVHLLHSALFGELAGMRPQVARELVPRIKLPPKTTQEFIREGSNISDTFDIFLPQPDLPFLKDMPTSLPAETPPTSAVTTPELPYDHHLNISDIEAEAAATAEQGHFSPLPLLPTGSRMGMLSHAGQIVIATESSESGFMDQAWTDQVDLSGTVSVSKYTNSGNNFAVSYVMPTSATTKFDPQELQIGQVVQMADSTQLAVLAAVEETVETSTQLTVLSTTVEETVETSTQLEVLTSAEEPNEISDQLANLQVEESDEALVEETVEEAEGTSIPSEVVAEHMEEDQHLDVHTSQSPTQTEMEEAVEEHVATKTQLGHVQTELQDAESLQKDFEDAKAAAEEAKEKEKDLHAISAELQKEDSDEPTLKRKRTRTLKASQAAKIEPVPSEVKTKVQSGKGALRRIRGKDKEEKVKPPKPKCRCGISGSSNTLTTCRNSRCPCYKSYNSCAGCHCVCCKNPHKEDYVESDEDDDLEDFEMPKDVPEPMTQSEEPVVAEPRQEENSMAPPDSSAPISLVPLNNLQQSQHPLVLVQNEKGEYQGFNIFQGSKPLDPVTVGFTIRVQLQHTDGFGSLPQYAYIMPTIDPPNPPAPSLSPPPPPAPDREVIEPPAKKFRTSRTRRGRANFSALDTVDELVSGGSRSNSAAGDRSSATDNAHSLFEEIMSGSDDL

T2: MSL2-ΔRING (Drosophila melanogaster, UniProt P50534 1-40+86-773, internal_change)
T2 sequence: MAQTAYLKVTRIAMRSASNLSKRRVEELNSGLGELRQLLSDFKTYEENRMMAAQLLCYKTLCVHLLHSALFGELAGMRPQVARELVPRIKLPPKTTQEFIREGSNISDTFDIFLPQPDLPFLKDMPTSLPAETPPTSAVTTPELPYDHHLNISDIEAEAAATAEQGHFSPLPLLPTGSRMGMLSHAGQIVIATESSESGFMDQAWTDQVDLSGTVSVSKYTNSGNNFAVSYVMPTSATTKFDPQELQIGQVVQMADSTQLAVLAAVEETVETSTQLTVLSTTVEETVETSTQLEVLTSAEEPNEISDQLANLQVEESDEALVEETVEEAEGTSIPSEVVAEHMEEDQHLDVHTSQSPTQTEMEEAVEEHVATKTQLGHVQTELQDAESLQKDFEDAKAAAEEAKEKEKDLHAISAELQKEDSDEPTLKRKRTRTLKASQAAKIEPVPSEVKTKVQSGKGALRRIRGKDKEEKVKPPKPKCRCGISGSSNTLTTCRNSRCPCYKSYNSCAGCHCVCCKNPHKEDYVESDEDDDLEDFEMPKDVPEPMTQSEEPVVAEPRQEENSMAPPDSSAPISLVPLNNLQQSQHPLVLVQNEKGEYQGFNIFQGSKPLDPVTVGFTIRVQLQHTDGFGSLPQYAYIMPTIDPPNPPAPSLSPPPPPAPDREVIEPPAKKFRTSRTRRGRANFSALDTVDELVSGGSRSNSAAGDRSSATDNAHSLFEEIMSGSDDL

T3: MSL2-ΔCXC (Drosophila melanogaster, UniProt P50534 1-519+572-773, internal_change)
T3 sequence: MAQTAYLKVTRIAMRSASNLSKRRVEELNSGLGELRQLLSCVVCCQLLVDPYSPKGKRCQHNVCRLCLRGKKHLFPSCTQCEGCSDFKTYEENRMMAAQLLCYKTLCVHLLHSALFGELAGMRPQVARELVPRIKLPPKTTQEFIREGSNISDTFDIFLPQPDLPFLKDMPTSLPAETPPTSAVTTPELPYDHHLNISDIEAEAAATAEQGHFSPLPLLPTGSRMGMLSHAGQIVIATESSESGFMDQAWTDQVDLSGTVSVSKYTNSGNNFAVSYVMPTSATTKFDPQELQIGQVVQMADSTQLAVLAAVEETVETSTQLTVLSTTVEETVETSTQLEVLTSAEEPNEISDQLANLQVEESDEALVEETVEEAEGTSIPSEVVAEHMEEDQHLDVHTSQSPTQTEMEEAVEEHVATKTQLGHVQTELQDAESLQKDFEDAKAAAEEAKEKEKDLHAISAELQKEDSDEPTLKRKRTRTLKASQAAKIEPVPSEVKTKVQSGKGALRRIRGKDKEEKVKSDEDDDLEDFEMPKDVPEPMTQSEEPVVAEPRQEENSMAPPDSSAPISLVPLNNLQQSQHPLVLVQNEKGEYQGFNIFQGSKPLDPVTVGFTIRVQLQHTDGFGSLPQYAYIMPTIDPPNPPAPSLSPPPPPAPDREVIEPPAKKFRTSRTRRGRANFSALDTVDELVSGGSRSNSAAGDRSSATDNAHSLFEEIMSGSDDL


Columns and labels:
[1] = biological target: MSL2-ΔPro/Bas (Drosophila melanogaster) (UniProt P50534); assay: EMSA
MSL2 [2] = biological target: T1, MSL2; assay: EMSA
MSL2-ΔRING = biological target: T2, MSL2-ΔRING; assay: EMSA
MSL2-ΔCXC = biological target: T3, MSL2-ΔCXC; assay: EMSA
MSL2 [3] = biological target: T1, MSL2; assay: competition

Row | Molecule | Kd [1] | Kd (MSL2 [2]) | Kd (MSL2-ΔRING) | Kd (MSL2-ΔCXC) | IC50 (MSL2 [3])
1 | UGCGGCCAUCUCUUUCGUUUUGAUGUUUCUACGCCAUGUG / CACAUGGCGUAGAAACAUCAAAACGAAAGAGAUGGCCGCA [DBF12-L15 dsRNA 40 bp] | 37 nM | – | – | – | –
2 | DBF12-L15 dsRNA 40 bp (dsRNA) RNA 1: UGCGGCCAUCUCUUUCGUUUUGAUGUUUCUACGCCAUGUG RNA 2: CACAUGGCGUAGAAACAUCAAAACGAAAGAGAUGGCCGCA | – | 21 ± 4 nM | 23 ± 5 nM | 29 ± 12 nM | 36 ± 8 nM
